{"source": "patent US20190160181A1", "molecular_target": "Human cyclized NaPi2b peptide (human)", "experiment": "ELISA on plate-coated human cyclized NaPi2b peptide, one site-specific binding fit"}
{"binder": "XMT-1535 (antibody, V domains shown) VH: QVQLVQSGAEVVKPGASVKMSCKASGYTFTGYNIHWVKQAPGQGLEWIGAIYPGNGDTSYKQKFRGRATLTADTSTSTVYMELSSLRSEDSAVYYCARGETARATFAYWGQGTLVTVSS VL: DIQMTQSPSSLSASVGDRVTITCSASQDIGNFLNWYQQKPGKTVKVLIYYTSSLYSGVPSRFSGSGSGTDYTLTISSLQPEDFATYYCQQYSKLPLTFGQGTKLELKR", "values": [{"measurement": "Kd", "result": 0.536, "unit": "nM"}]}
